From publication PMC4109836, “Analysis of the co-operative interaction between the allosterically regulated proteins GK and GKRP using tryptophan fluorescence” (Biochemical Journal, 2014)
Like-named read-outs stand apart in the source and are kept apart here. Each block holds one molecule with its values, some of them ahead of it.

Legend:
GK-T65W/W99R/W167F/W257F = target: T1, GK-T65W/W99R/W167F/W257F (Homo sapiens, UniProt P35557, T65W/W167F/W257F/W99R); assay: GKA and glucose binding by GK-T65W/W99R/W167F/W257F measured by TF; settings: 25°C
T1 construct: GST (cleaved yes); made in house; host or cells: Escherichia coli
T1 sequence (P35557 1-465 T65W/W99R/W167F/W257F): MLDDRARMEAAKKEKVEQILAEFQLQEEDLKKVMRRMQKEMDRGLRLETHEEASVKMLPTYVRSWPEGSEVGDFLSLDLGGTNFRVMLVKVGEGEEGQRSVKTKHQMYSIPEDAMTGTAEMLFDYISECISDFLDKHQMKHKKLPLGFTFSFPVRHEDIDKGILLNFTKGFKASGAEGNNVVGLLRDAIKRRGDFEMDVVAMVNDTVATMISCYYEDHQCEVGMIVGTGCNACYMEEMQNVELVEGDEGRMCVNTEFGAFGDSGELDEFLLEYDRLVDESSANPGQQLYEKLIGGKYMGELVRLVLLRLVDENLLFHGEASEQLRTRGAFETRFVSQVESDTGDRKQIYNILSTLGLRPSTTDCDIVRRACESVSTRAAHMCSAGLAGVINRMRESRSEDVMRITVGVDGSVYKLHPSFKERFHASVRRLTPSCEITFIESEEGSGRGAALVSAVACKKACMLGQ

GKRP-P446L [1] = target: T2, GKRP-P446L (Homo sapiens, UniProt Q14397, P446L); assay: Ligand binding to free GKRP-P446L measured by TF of GKRP
T2 construct: FLAG; made in house; host or cells: Escherichia coli
T2 sequence (Q14397 1-625 P446L): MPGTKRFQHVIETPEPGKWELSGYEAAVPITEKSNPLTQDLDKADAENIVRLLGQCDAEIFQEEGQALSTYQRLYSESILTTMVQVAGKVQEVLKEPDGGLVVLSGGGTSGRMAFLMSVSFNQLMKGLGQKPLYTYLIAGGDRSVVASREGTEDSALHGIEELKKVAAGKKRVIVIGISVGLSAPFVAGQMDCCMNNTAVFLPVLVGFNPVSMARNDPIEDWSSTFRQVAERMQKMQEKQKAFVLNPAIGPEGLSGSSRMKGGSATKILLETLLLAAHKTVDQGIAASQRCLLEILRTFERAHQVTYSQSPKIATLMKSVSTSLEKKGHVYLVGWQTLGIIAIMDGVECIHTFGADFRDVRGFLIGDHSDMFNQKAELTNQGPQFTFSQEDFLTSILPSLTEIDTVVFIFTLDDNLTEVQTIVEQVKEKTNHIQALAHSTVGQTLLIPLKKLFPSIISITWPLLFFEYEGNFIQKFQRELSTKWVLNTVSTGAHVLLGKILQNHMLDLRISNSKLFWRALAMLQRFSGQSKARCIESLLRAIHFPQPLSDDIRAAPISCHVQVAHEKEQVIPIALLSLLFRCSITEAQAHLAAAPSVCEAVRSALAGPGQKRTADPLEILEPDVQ

GKRP-P446L [2] = target: T3, GKRP-P446L (Homo sapiens, UniProt P35557+Q14397, P446L/W167F/W257F/W99R); assay: Titration of GKRP-P446L with GK-W99R/W167F/W257F (GK–GKRP complex assembly) by TF; assay type: binding; set-up: ΔF: scale not given here; settings: for Kd: read-out: S0.5 of GK
T3 construct: FLAG; GST (cleaved yes); made in house; host or cells: Escherichia coli
T3 sequence (Q14397 1-625 P446L): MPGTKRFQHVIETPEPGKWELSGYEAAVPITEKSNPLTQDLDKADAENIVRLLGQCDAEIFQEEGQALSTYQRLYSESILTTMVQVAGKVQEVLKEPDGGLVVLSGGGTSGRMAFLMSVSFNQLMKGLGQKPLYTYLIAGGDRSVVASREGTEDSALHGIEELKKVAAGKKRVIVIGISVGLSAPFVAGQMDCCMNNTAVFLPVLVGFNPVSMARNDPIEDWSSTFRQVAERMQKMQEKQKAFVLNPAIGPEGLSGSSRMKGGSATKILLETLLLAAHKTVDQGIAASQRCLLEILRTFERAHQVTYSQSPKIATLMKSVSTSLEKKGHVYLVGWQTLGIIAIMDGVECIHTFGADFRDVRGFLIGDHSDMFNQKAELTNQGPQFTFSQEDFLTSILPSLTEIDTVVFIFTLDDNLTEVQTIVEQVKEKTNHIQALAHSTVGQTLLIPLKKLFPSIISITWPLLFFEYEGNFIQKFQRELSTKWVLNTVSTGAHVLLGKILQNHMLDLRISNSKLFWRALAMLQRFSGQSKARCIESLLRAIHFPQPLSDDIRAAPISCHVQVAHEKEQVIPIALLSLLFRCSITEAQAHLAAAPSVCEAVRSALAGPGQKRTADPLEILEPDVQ
T3 sequence (P35557 1-465 W99R/W167F/W257F): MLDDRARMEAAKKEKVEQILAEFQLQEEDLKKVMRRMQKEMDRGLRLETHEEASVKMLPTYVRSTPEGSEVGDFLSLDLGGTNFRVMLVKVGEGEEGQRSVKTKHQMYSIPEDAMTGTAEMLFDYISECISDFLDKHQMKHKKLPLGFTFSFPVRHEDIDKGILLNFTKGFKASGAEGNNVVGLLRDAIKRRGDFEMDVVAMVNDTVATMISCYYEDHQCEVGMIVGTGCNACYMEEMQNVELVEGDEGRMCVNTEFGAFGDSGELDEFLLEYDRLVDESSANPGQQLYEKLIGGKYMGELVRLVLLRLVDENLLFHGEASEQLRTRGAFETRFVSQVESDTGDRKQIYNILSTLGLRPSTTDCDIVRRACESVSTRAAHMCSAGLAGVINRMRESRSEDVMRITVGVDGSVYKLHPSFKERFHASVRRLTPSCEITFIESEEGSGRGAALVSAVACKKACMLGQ
Experimental: Spectra were measured with a Fluorolog-3-21 Jobin-Yvon Spex Instrument SA equipped with a 450 W Xenon lamp for excitation and a cooled R2658P Hamamatsu photomultiplier tube for detection. For all measurements, 90° geometry was employed and 295 nm excitation wavelengths were used to observe fluorescence emission in the 300–500 nm range. For TF, spectra slit width was set to provide a bandpath of 3 nm for excitation and 3 nm for emission. Spectra were corrected for instrumental response using Spex instrument software. A thermostatically controlled cell holder maintained sample temperature at 20°C. A thermocoupler was used to measure sample temperature. The buffer used contained 20 mM phosphate, 50 mM KCl, 1 mM EDTA and 1 mM DTT (pH 7.2).
Fluorescence data were obtained via the stepwise addition of the appropriate amount of non-fluorescent GK-W99R/W167F/W257F to GKRP in a fluorescence cuvette. […] The change in GKRP protein fluorescence during titration was also measured using time-dependent scans. A manual procedure was used such that a typical titration with 10–12 additions required 20–25 min to perform. The same buffer as described above was routinely used unless stated otherwise. The bandpath was 0.5 nm at 295 nm for excitation and 12 nm at 340 nm for emission. […] For some graphical presentations the linear form of the Hill equation was used: log[F/(Fsat−F)]=H log x−H log KD [46].

[3] = D-glucose titration in the presence of GKA (20 μM)
[4] = 0.3 μM GKRP-P446L, ligand alone, 20°C
[5] = GK titration with 20 μM GKA, 20°C
[6] = GK titration with 500 μM F1P, 20°C
[7] = GK titration with 500 μM F6P, sigmoidal fit, 20°C
[8] = GK titration with 500 μM F6P, simple saturation fit (H = 1)
[9] = GK titration with 100 mM D-glucose and 20 μM GKA, 20°C
[10] = GK titration with 100 mM D-glucose and 500 μM F1P, 20°C
[11] = GK titration with 100 mM D-glucose and 500 μM F6P, 20°C
[12] = GK titration with 100 mM D-glucose, 20°C
[13] = GK titration, no further agent, sigmoidal fit, 20°C
[14] = GK titration, no further agent, simple saturation fit (H = 1)

- H (GK-T65W/W99R/W167F/W257F; [3]): 1
- Kd (GK-T65W/W99R/W167F/W257F; [3]): 740 µM
- H (GK-T65W/W99R/W167F/W257F; D-glucose titration): 1
- Kd (GK-T65W/W99R/W167F/W257F; D-glucose titration): 4600 µM
- Kd (GKRP-P446L [1]; 0.3 μM GKRP-P446L, D-glucose alone, 20°C, read-out: S0.5): 27000 µM
- H (Hill number) (GKRP-P446L [1]; [4]): 1.49
- ΔF (relative fluorescence change at 340 nm) (GKRP-P446L [1]; [4]): −0.06
- effect on the TF signal of GKRP-P446L (GKRP-P446L [1]; ligand alone): lowered the TF signal
Molecule: OC[C@H]1OC(O)[C@H](O)[C@@H](O)[C@@H]1O (stereo partly drawn) [D-Glucose, D-glucose]

- H (GKRP-P446L [2]; [5]): 2.17
- ΔF (GKRP-P446L [2]; [5]): 0.43
- Kd (GKRP-P446L [2]; [5]): 2.59 µM
- H (GKRP-P446L [2]; [6]): 2.84
- ΔF (GKRP-P446L [2]; [6]): 0.41
- Kd (GKRP-P446L [2]; [6]): 2.95 µM
- H (GKRP-P446L [2]; [7]): 1.31
- ΔF (GKRP-P446L [2]; [7]): 0.44
- Kd (GKRP-P446L [2]; [7]): 1.66 µM
- H (GKRP-P446L [2]; GK titration with 500 μM F6P, simple saturation fit): 1
- ΔF (GKRP-P446L [2]; [8]): 0.55
- Kd (GKRP-P446L [2]; [8]): 2.45 µM
- H (GKRP-P446L [2]; [9]): 2.68
- ΔF (GKRP-P446L [2]; [9]): 0.42
- Kd (GKRP-P446L [2]; [9]): 3.55 µM
- H (GKRP-P446L [2]; [10]): 2.77
- ΔF (GKRP-P446L [2]; [10]): 0.44
- Kd (GKRP-P446L [2]; [10]): 2.97 µM
- H (GKRP-P446L [2]; [11]): 2.45
- ΔF (GKRP-P446L [2]; [11]): 0.42
- Kd (GKRP-P446L [2]; [11]): 2.84 µM
- H (GKRP-P446L [2]; [12]): 2.94
- ΔF (GKRP-P446L [2]; [12]): 0.43
- Kd (GKRP-P446L [2]; [12]): 3.38 µM
- H (GKRP-P446L [2]; [13]): 1.86
- ΔF (GKRP-P446L [2]; [13]): 0.44
- Kd (GKRP-P446L [2]; [13]): 2.05 µM
- H (GKRP-P446L [2]; GK titration, no further agent, simple saturation fit): 1
- ΔF (GKRP-P446L [2]; [14]): 0.82
- Kd (GKRP-P446L [2]; [14]): 5.23 µM
- maximal ΔTF value of GKRP-P446L (GKRP-P446L [2]; range under all conditions tested): 0.41–0.44
- increase of the TF of GKRP-P446L (GKRP-P446L [2]; saturating GK (5 μM), 0.3 μM GKRP): 44%
B1: GK-W99R/W167F/W257F: tryptophan residue-free, non-fluorescent recombinant human β-cell GK made for the present study (protein)
chain: MLDDRARMEAAKKEKVEQILAEFQLQEEDLKKVMRRMQKEMDRGLRLETHEEASVKMLPTYVRSTPEGSEVGDFLSLDLGGTNFRVMLVKVGEGEEGQRSVKTKHQMYSIPEDAMTGTAEMLFDYISECISDFLDKHQMKHKKLPLGFTFSFPVRHEDIDKGILLNFTKGFKASGAEGNNVVGLLRDAIKRRGDFEMDVVAMVNDTVATMISCYYEDHQCEVGMIVGTGCNACYMEEMQNVELVEGDEGRMCVNTEFGAFGDSGELDEFLLEYDRLVDESSANPGQQLYEKLIGGKYMGELVRLVLLRLVDENLLFHGEASEQLRTRGAFETRFVSQVESDTGDRKQIYNILSTLGLRPSTTDCDIVRRACESVSTRAAHMCSAGLAGVINRMRESRSEDVMRITVGVDGSVYKLHPSFKERFHASVRRLTPSCEITFIESEEGSGRGAALVSAVACKKACMLGQ
modifications: left off: GST, end not stated, cleaved
notes: tryptophan residue-free, non-fluorescent recombinant human β-cell GK made for the present study
